# Source: patent US20110124572A1 (published 2011)
# Target: small GTPase Rac1 (UniProt P63000 1-189)
# Test: immunoprecipitation with Tiam-1 antiserum from MCF-7 line lysates, blot with anti-Rac1
# Protocol: In brief, 70% confluent cultures of 25 mL flask were detached, pelleted and following 2 times washing with PBS. The pellet were lysed in RIPA buffer then centrifuged and the supernatant was pre-cleared by addition of 5 μL of protein A/G-sepharose beads slurry (Pierce) for 2 hours, then the supernatant was incubated with the antibody of interest for 24 hours. 10 μL of protein A/G slurry was added for 2 hours, collected by pulse centrifugation, washed 3 times with lysis buffer, resuspended in 2×SDS loading buffer subjected to SDS-PAGE, followed by immunoblotting with the appropriate antibodies.
binder,measurement,value
"Tiam-1, Rac1-specific guanine nucleotide exchange factor (RacGEF) (enzyme, Endogenous protein in MCF-7 cell lysate) GNAESQHVEHEFYGEKHASLGRKHTSRSLRLSHKTRRTRHASSGKVIHRNSEVSTRSSSTPSIPQSLAENGLEPFSQDGTLEDFGSPIWVDRVDMGLRPVSYTDSSVTPSVDSSIVLTAASVQSMPDTEESRLYGDDATYLAEGGRRQHSYTSNGPTFMETASFKKKRSKSADIWREDSLEFSLSDLSQEHLTSNEEILGSAEEKDCEEARGMETRASPRQLSTCQRANSLGDLYAQKNSGVTANGGPGSKFAGYCRNLVSDIPNLANHKMPPAAAEETPPYSNYNTLPCRKSHCLSEGATNPQISHSNSMQGRRAKTTQDVNAGEGSEFADSGIEGATTDTDLLSRRSNATNSSYSPTTGRAFVGSDSGSSSTGDAARQGVYENFRRELEMSTTNSESLEEAGSAHSDEQSSGTLSSPGQSDILLTAAQGTVRKAGALAVKNFLVHKKNKKVESATRRKWKHYWVSLKGCTLFFYESDGRSGIDHNSIPKHAVWVENSIVQAVPEHPKKDFVFCLSNSLGDAFLFQTTSQTELENWITAIHSACATAVARHHHKEDTLRLLKSEIKKLEQKIDMDEKMKKMGEMQLSSVTDSKKKKTILDQIFVWEQNLEQFQMDLFRFRCYLASLQGGELPNPKRLLAFASRPTKVAMGRLGIFSVSSFHALVAARTGETGVRRRTQAMSRSASKRRSRFSSLWGLDTTSKKKQGRPSINQVFGEGTEAVKKSLEGIFDDIVPDGKREKEVVLPNVHQHNPDCDIWVHEYFTPSWFCLPNNQPALTVVRPGDTARDTLELICKTHQLDHSAHYLRLKFLIENKMQLYVPQPEEDIYELLYKEIEICPKVTQSIHIEKSDTAADTYGFSLSSVEEDGIRRLYVNSVKETGLASKKGLKAGDEILEINNRAADALNSSMLKDFLSQPSLGLLVRTYPELEEGVELLESPPHRVDGPADLGESPLAFLTSNPGHSLCSEQGSSAETAPEETEGPDLESSDETDHSSKSTEQVAAFCRSLHEMNPSDQSPSPQDSTGPQLATMRQLSDADKLRKVICELLETERTYVKDLNCLMERYLKPLQKETFLTQDELDVLFGNLTEMVEFQVEFLKTLEDGVRLVPDLEKLEKVDQFKKVLFSLGGSFLYYADRFKLYSAFCASHTKVPKVLVKAKTDTAFKAFLDAQNPKQQHSSTLESYLIKPIQRILKYPLLLRELFALTDAESEEHYHLDVAIKTMNKVASHINEMQKIHEEFGAVFDQLIAEQTGEKKEVADLSMGDLLLHTTVIWLNPPASLGKWKKEPELAAFVFKTAVVLVYKDGSKQKKKLVGSHRLSIYEDWDPFRFRHMIPTEALQVRALASADAEANAVCEIVHVKSESEGRPERVFHLCCSSPESRKDFLKAVHSILRDKHRRQLLKTESLPSSQQYVPFGGKRLCALKGARPAMSRAVSAPSKSLGRRRRRLARNRFTIDSDAVSASSPEKESQQPPGGGDTDRWVEEQFDLAQYEEQDDIKETDILSDDDEFCESVKGASVDRDLQERLQATSISQRERGRKTLDSHASRMAQLKKQAALSGINGGLESASEEVIWVRREDFAPSRKLNTEI",binding result,binds
